# B1: HDV Ribozyme (parent)
# chain: GGCCGGCAUGGUCCCAGCCUCCUCGCUGGCGCCGGCUGGGCAACAUUCCGAGGGGACCGUCCCCUCGGUAAUGGCGAAUGGGACCCA
# Variants of: B1
# Assay: self-cleavage, relative activity (ratio to wild type); higher = more cleavage; co-transcriptional
row,Variant,self-cleavage
1,G52U C61A,1.02
2,G52U C61U,0.936
3,G52A A83U,0.475
4,G52A A83G,0.85
5,G53A C57A,0.866
6,G53A C57U,1.06
7,G53A A87G,0.995
8,G53A C64A,0.639
9,G52C A87C,0.85
10,G52C U72A,0.872
11,G52C U72G,0.723
12,G52U G82A,0.277
13,G52U G76C,0.921
14,G52U G76U,1.05
15,G52C C85G,1.03
16,G52C C85A,0.969
17,G52C G54A,0.541
18,G52U G54C,0.684
19,G52C G73U,0.415
20,G52A C63U,0.969
21,G52A C63G,0.415
22,G52A C85U,0.923
23,G52A C85A,1.03
24,G52C U79C,0.582

row,Variant,self-cleavage
1,G52C U79A,0.906
2,G52C G53C,0.582
3,G52C C64A,0.753
4,G52C C64G,0.739
5,G52U C66A,0.618
6,G52U C66G,0.472
7,G52U C66U,0.737
8,G53A A70G,1.07
9,G52U U72C,0.426
10,G52U U72G,0.396
11,G52C U60C,0.966
12,G52U G59C,0.765
13,G53A A71U,0.904
14,G52A G81A,0.529
15,G52C C66U,0.965
16,G52C C66G,0.672
17,G52A A78U,0.277
18,G52A A78C,0.347
19,G52A G73C,0.337
20,G52A G73A,0.602
21,G52A C66U,0.982
22,G52A C66G,0.841
23,G52A A87U,0.897
24,G52A A87C,1.13

row,Variant,self-cleavage
1,G52A U79C,0.514
2,G52C C84G,0.978
3,G52C U69G,0.914
4,G52C U69A,1.21
5,G52U U79A,0.759
6,G52C A71C,0.332
7,G52C A71G,0.884
8,G52C A71U,0.831
9,G52C C57A,0.817
10,G52C C57U,0.991
11,G52C C57G,0.866
12,G52A C61U,0.879
13,G52U C62U,0.754
14,G52U G67A,0.265
15,G52A G74A,0.518
16,G53A C62U,0.926
17,G52U G68C,0.185
18,G52U G68U,0.415
19,G52U C63U,1
20,G52U C85U,0.781
21,G52U C85G,0.791
22,G53A,1
23,G52U C57G,0.95
24,G52U C57U,1.24

row,Variant,self-cleavage
1,G52C A77C,0.403
2,G52C A77U,0.731
3,G52C A77G,0.643
4,G52A G67A,0.923
5,G52A G67C,0.878
6,G52C C86G,0.997
7,G52U C84G,0.573
8,G52U C84A,0.904
9,G52C G68U,0.332
10,G53A C58U,0.987
11,G53A C58A,0.962
12,G53A A83C,0.464
13,G53A A83U,0.521
14,G53A A83G,0.802
15,G52U C86U,1.02
16,G52U C86A,0.926
17,G52C C75G,0.104
18,G52U U65A,0.82
19,G52C G74A,0.486
20,G52C G74C,0.17
21,G52C C62G,0.383
22,G52C G55U,0.966
23,G52C G55A,0.901
24,G52C C61A,0.857

row,Variant,self-cleavage
1,G52U A77G,0.647
2,G52U G53C,0.672
3,G52U G53U,0.733
4,G52C A78C,0.0723
5,G52U A87U,1
6,G52U A87G,0.906
7,G52C,1.01
8,G52U,0.938
9,G52A G80A,0.386
10,G52A G80C,0.272
11,G52A G80U,0.262
12,G52U A71U,0.781
13,G52A U69C,1.21
14,G52C G76U,1.03
15,G52C G76C,1.03
16,G52U G81C,0.298
17,G52U G73U,0.305
18,G52U G73C,0.155
19,G52U C58U,0.898
20,G52A G55C,0.923
21,G52U G74C,0.363
22,G52U U60C,0.961
23,G52A G53C,0.743
24,G52U C75A,0.148

row,Variant,self-cleavage
1,G52A A77G,0.89
2,G52A G59C,1.05
3,G52A G59U,0.865
4,G52A G59A,1.07
5,G52A U72C,0.591
6,G52A U72G,0.749
7,G52A U72A,0.423
8,G52C G67U,0.753
9,G52C G67A,0.62
10,G53A A77C,0.251
11,G53A A77G,0.916
12,G52U A56C,0.815
13,G52C C58U,1.24
14,G53A C63A,0.819
15,G53A C63G,1.01
16,G52C C63G,0.892
17,G52U G55A,0.731
18,G52U G55U,0.822
19,G52U G80U,0.312
20,G52C G81U,0.579
21,G52C G81C,0.242
22,G52C A83U,0.389
23,G52C A83G,0.683
24,G52A U65G,0.986

row,Variant,self-cleavage
1,G52A U65C,0.954
2,G52U U69G,1.19
3,G52C G59C,0.987
4,G52C G59U,0.962
5,G52C G59A,1.02
6,G52C G80U,0.299
7,G52C G80A,0.475
8,G52U A78U,0.378
9,G52U A78C,0.292
10,G52C A70C,0.85
11,G52A C86G,1.04
12,G52A C86U,0.816
13,G53A A78G,0.618
14,G53A A78U,0.277
15,G52C G82U,0.283
16,G52C G82C,0.141
17,G52U C64A,0.911
18,G52A C75U,0.147
19,G52A C75A,0.166
20,G52A C75G,0.227
21,G52A C64U,0.992
22,G53A C61A,0.987
23,G53A C61U,0.99
